{
  "source": "patent US20190077858A1",
  "about": "(KM BIOLOGICS, published 2019)",
  "key": {"[1]": {"target": "T1, human IL-18 (MBL Medical & Biological Laboratories, Co., Ltd.) (human, UniProt Q14116 37-193, biotinylated (Biotin-PEAC5-maleimide or Biotin-AC5 Sulfo-OSu) in the streptavidin plate ELISAs and the panning; not labelled in the receptor binding and KG-1 assays)", "T1 sequence (looked up)": "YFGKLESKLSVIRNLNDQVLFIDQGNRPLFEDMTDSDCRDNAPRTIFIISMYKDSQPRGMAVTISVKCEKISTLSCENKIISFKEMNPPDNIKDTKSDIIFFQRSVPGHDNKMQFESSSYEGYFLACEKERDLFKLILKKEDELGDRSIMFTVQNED", "test": "cell-based or functional assay"}, "[2]": {"target": "T2, human IL-1β (Funakoshi Corp.) (human, UniProt P01584 117-269, biotinylated (Biotin-PEAC5-maleimide or Biotin-AC5 Sulfo-OSu))", "T2 construct": "also called biotinylated human IL-1β", "test": "ELISA on biotinylated cytokine on streptavidin plates"}, "[3]": {"target": "T3, human IL-33 (MBL Medical & Biological Laboratories, Co., Ltd.) (human, UniProt O95760 112-270, limits assumed, biotinylated (Biotin-PEAC5-maleimide or Biotin-AC5 Sulfo-OSu))", "T3 construct": "also called biotinylated human IL-33", "T3 sequence (looked up)": "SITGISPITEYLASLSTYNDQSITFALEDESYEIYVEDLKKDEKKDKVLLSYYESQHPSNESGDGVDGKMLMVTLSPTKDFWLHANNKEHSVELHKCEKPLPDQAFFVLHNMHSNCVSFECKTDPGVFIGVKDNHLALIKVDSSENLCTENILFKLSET", "test": "ELISA on biotinylated cytokine on streptavidin plates"}, "[4]": {"target": "T4, rat IL-18 (Acris Antibodies GmbH) (rat, UniProt P97636 37-194, limits assumed, biotinylated (Biotin-PEAC5-maleimide or Biotin-AC5 Sulfo-OSu))", "T4 construct": "also called biotinylated rat IL-18", "T4 sequence (looked up)": "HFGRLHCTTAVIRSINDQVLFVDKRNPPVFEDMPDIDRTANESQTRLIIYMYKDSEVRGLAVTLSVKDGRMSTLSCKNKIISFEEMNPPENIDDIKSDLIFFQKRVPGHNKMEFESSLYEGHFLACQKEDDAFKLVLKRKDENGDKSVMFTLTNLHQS", "test": "ELISA on biotinylated cytokine on streptavidin plates"}, "[5]": {"target": "T5, mouse IL-18 (MBL Medical & Biological Laboratories, Co., Ltd.) (mouse, UniProt P70380 36-192, biotinylated (Biotin-PEAC5-maleimide or Biotin-AC5 Sulfo-OSu))", "T5 construct": "also called biotinylated mouse IL-18", "T5 sequence (looked up)": "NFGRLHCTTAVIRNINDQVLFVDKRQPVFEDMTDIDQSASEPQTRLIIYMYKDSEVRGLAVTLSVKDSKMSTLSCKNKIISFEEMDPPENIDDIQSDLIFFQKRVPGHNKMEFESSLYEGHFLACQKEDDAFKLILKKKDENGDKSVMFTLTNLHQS", "test": "ELISA on biotinylated cytokine on streptavidin plates"}, "[6]": {"target": "T6, K53A variant of human IL-18 (human, UniProt Q14116 37-193, K53A, biotinylated)", "T6 construct": "On the precursor entry the residue at 53 may not be K; the numbering is likely that of mature IL-18", "T6 sequence (looked up)": "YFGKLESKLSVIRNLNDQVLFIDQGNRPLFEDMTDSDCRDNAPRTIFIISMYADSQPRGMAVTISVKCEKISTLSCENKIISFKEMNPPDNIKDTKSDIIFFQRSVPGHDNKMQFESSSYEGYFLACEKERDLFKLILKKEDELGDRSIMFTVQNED", "test": "ELISA on immobilised biotinylated K53A IL-18, antibody at 1 µg/mL", "experimental": "Next, these human IL-18 proteins were biotinylated, then each diluted to 1 μg/mL with PBS (Sigma-Aldrich Corp.), added at 100 μL/well to Streptavidin plates (Nunc), and incubated at room temperature for 2 hours to immobilize them. After the immobilization, the plates were washed with PBST, and human IL-18BPa-hFc (R&D Systems, Inc.) or the IgG molecule-type 4A6D was prepared at 1 μg/mL with 1% BSA-PBS, added at 100 μL/well to the plates, and incubated at 37° C. After 1 hour, the plates were washed with PBST, and a detection antibody anti-hFc/HRP (Cosmo Bio Co., Ltd., The binding site) was added at 100 μL/well to the plates and incubated at 37° C. After 1 hour, the plates were washed with PBST, and TMB (Sigma-Aldrich Corp.) was added at 100 μL/well to the plates to develop color. After 30 minutes, the reaction was terminated with 1 M sulfuric acid, and the color values (O.D. 450 nm/650 nm) were measured using a microplate reader (Molecular Devices, Inc.)."}, "[7]": {"target": "T1, human IL-18 (MBL Medical & Biological …)", "test": "blocking ELISA: human IL-18 with IL-18Rα-hFc-His and the antibody added to plate-bound IL-18Rβ-hFc, anti-His tag/HRP; blocked partner: IL-18 receptor", "experimental": "IL-18Rβ-hFc (R&D Systems, Inc.) was added at 100 μL/well at a concentration of 1 μg/mL to Covalink plates (Nunc) and incubated at room temperature for 1 hour and then incubated overnight at 4° C. On the next day, the plates were washed with PBS (phosphate buffered saline) and blocked with 1% BSA (bovine serum albumin)-PBS. Human IL-18 (MBL Medical & Biological Laboratories, Co., Ltd.) was prepared at a concentration of 0.5 μg/mL with 1% BSA-PBS, and IL-18Rα-hFc-His (R&D Systems, Inc.) was prepared at a concentration of 2 μg/mL with 1% BSA-PBS. Both of the solutions were mixed (50 μL each). The obtained anti-IL-18 antibody was further added to the IL-18/IL-18Rα-hFc-His mixed solution. This mixed solution was added to the IL-18Rβ-hFc-immobilized Covalink plates and incubated at 37° C. for 1 hour. After 1 hour, the plates were washed with PBST (phosphate buffered saline-Tween 20), and a detection antibody anti-His tag/HRP (Bethyl Laboratories, Inc.) was added at 100 μL/well to the plates and incubated at 37° C. After 1 hour, the plates were washed with PBST, and TMB (Sigma-Aldrich Corp.) was added at 100 μL/well to the plates to develop color. After 30 minutes, the reaction was terminated with 2 N sulfuric acid, and the color values (O.D. 450 nm/650 nm) were measured using a microplate reader (Molecular Devices, Inc.)."}},
  "data": [
    {"binder": "IgG molecule-type 4A6D (antibody, V domains shown, detected with anti-hFc, so human constant regions; also called human anti-human IL-18 antibody 4A6D) VH: EVQLVESGGGLVQPGGSMRLSCTASGFTFDEYAMSWVRQAPGKGLEWVSGISTGGGGTYYADSVEGRFTISRDNSKNTLYLQMNSLRAEDTAVYYCAKPWLSGSRSGDFWGQGTLVTVSS VL: QSALTQPASVSGSPGQSITISCTGTSSDVGGYNYVSWYQQHPGKAPKLLIYEVSHRPSGVSDRFSGSKSGNTASLTISGLQAEDEADYYCSSFTSSSSLYVFGTGTKLTVL", "values": [
      {"measurement": "Neutralizing ability (IC50, nM)", "setting": "[1]", "value": 0.007, "unit": "nM"},
      {"measurement": "binding result", "setting": "[2]", "value": "no binding"},
      {"measurement": "binding result", "setting": "[3]", "value": "no binding"},
      {"measurement": "binding result", "setting": "[4]", "value": "no binding"},
      {"measurement": "binding result", "setting": "[5]", "value": "no binding"},
      {"measurement": "binding result", "setting": "[6]", "value": "binds"},
      {"measurement": "IC50 (read off the curve)", "setting": "[7]", "value": "~0.3", "unit": "µg/mL"}
    ]}
  ]
}
